Laboratory results published in patent publication US20230174617A1 (PROGEN, published 2023).

Experiments:
[1] = molecular target: anti-DNP mouse IgE (Sigma); experiment: cell-based or functional assay
human IgE = experiment: BLI (Octet K2), fusion protein on AR2G sensor, human IgE as analyte
[2] = molecular target: anti-DNP mouse IgE (Sigma); experiment: BLI (Octet K2), fusion protein on sensor, anti-DNP mouse IgE as analyte, first test
Method: (§1) Specifically, 200 μl of D. W. was dispensed into a 96-well plate, and then an amine biosensor included in the kit was inserted to perform hydration for 10 minutes. Subsequently, after 200 μl of D. W. was additionally dispensed, EDC and NHS were mixed at 1:1 in an amount of 1/20 of the required sample amount and then diluted with D. W., and 200 μl of the resultant was dispensed into the 96-well plate. Next, the FcεRIα-modified IgG4 Fc protein and the FcεRIα-NTIG-IL-10Vm fusion protein were diluted to 10 μg/ml in a 10 mM acetate solution having a pH of 5.0, and then 200 μl of the resultant was added to the 96-well plate. After 200 μl of 1 M ethanolamine was added to the 96-well plate, the biosensor plate and the sample plate were placed in an Octet®-K2 instrument and measured. After the measurement was completed, 200 μl of a 1× kinetics buffer solution was added to the sample plate, and then a baseline was determined.

[3] = molecular target: anti-DNP mouse IgE (Sigma); experiment: BLI (Octet K2), fusion protein on sensor, anti-DNP mouse IgE as analyte, third test
Method: as §1

[4] = molecular target: anti-DNP mouse IgE (Sigma); experiment: BLI (Octet K2), fusion protein on sensor, anti-DNP mouse IgE as analyte, second test
Method: as §1

[5] = molecular target: anti-DNP mouse IgE (Sigma); experiment: BLI (Octet K2), fusion protein on AR2G sensor, anti-DNP mouse IgE as analyte, first test
Method: as §1

[6] = molecular target: anti-DNP mouse IgE (Sigma); experiment: BLI (Octet K2), fusion protein on AR2G sensor, anti-DNP mouse IgE as analyte, third test
Method: as §1

[7] = molecular target: anti-DNP mouse IgE (Sigma); experiment: BLI (Octet K2), fusion protein on AR2G sensor, anti-DNP mouse IgE as analyte, second test
Method: as §1

[8] = molecular target: anti-DNP mouse IgE (Sigma); experiment: BLI (Octet K2), fusion protein on AR2G sensor, anti-DNP mouse IgE as analyte, mean of three tests
Method: as §1

[9] = molecular target: T1, recombinant human neonatal Fc receptor (rhFcRn, R&D systems) (human, UniProt P55899 24-297; P61769 21-119); experiment: SPR, steady state affinity, rhFcRn on chip, pH 6.0
T1 construct: Bought reagent; also called recombinant FcRn
T1 sequence (P55899 24-297 limits assumed, chain 1 of 2): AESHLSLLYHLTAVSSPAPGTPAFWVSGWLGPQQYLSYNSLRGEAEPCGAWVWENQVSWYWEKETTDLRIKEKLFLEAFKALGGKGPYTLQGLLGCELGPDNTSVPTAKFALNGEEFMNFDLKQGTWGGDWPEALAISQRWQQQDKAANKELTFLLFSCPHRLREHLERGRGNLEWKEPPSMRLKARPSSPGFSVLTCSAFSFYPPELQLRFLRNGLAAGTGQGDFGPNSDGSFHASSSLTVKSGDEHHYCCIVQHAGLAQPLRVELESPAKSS
T1 sequence (P61769 21-119 limits assumed, chain 2 of 2): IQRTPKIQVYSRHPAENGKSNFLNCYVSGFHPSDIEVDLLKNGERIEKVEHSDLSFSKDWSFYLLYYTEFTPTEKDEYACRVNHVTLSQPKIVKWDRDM
Method: (§2) As the analyzer, Biocore 8K (GE Healthcare, USA) was used, and all reagents used in the analysis were purchased from GE Healthcare. […] The experiment was performed at a flow rate of 30 μl/min at 25° C., an association of an analyte was performed for 60 seconds, and then dissociation was performed for 60 seconds. […] At this time, the buffer solution was replaced with a PBS buffer solution having a pH of 7.4 during regeneration.
(§3) During the regeneration, a PBS buffer solution having a pH of 7.4 was used.

FcγRIIb = molecular target: T2, FcγRIIb (UniProt P31994 46-217, limits assumed); experiment: BLI, single trace with fit; PBS panel as control
T2 sequence (looked up): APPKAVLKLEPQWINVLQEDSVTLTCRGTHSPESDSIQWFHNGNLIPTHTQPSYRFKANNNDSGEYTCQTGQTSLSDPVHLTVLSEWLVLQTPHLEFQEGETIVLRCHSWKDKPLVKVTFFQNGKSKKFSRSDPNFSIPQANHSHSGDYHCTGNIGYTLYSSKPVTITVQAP

FcγRIIIb = FcγRIIIb (UniProt O75015 17-200, limits assumed); experiment: BLI, single trace with fit; PBS panel as control
Sequence of FcγRIIIb (O75015 17-200 limits assumed): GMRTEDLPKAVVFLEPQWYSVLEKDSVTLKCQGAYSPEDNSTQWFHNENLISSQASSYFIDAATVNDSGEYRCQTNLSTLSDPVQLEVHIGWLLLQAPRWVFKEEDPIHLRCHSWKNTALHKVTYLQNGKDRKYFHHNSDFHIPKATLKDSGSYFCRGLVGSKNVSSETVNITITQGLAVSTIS

FcγRIIa = molecular target: T3, FcγRIIa (UniProt P12318 36-218, limits assumed); experiment: BLI, single trace with fit; PBS panel as control
T3 sequence (looked up): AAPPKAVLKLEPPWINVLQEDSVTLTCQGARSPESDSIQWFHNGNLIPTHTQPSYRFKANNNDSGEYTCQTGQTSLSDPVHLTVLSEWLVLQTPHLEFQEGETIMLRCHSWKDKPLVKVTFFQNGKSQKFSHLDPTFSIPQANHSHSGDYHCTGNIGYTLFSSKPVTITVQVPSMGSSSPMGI

[10] = molecular target: T1, recombinant human neonatal Fc receptor …; experiment: SPR, rhFcRn on CM5, analyte in PBST pH 6.0, steady state affinity
From the text: as §3

[11] = molecular target: T4, Fc gamma receptor I (FcγRI) (UniProt P12314 16-288, limits assumed); experiment: BLI; concentrations and the immobilised partner are not given
T4 construct: also called FcγR1
T4 sequence (P12314 16-288 limits assumed): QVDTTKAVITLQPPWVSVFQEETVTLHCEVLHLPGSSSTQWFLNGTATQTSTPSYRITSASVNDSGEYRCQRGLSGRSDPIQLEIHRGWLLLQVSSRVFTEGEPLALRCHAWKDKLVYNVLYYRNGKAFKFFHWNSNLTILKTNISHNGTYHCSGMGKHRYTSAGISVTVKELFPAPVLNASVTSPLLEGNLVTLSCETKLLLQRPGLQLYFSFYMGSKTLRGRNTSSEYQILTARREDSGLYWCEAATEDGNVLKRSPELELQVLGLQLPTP

[12] = molecular target: T5, Fc gamma receptor IIIa (FcγRIIIa) (UniProt P08637 17-208, limits assumed); experiment: as above
T5 construct: also called FcγR3a
T5 sequence (P08637 17-208 limits assumed): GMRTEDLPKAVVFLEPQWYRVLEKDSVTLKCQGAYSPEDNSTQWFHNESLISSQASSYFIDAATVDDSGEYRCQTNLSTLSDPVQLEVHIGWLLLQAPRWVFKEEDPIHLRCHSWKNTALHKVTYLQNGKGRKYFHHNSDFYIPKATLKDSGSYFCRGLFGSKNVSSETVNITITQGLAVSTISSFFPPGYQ

complement C1q = molecular target: T6, complement C1q (UniProt P02745 23-245; P02746 28-253; P02747 29-245); experiment: ELISA, PG-11 coated at 2 µg/ml, C1q in varied concentration, OD 450 nm
T6 construct: the method text names a C1q-HRP conjugate; also called C1q-HRP conjugate
T6 sequence (P02745 23-245 limits assumed, chain 1 of 3): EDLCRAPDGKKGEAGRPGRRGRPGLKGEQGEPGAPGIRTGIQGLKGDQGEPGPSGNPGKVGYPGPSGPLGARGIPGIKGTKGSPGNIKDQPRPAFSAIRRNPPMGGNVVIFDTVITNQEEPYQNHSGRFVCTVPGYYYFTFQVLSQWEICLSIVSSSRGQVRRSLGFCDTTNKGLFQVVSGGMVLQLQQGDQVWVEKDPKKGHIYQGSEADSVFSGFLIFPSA
T6 sequence (P02746 28-253 limits assumed, chain 2 of 3): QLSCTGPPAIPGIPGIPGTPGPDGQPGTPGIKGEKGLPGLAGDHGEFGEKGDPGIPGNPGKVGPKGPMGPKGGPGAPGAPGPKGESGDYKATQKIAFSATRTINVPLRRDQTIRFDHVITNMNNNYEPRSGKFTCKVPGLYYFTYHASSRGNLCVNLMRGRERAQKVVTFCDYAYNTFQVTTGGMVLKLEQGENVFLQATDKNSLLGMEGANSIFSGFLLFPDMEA
T6 sequence (P02747 29-245 limits assumed, chain 3 of 3): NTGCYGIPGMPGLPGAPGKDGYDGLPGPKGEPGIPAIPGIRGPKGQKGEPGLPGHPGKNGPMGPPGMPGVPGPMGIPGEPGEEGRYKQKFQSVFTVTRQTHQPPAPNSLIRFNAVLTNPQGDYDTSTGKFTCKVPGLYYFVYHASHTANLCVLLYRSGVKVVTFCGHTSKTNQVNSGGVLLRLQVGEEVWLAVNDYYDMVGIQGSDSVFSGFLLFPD
Method: Subsequently, 100 μl of each diluted sample was loaded into each well and reacted overnight at 4° C. Next, washing was performed three times by adding 300 μl of a washing buffer solution to the plate each time, 200 μl of a blocking buffer solution (2% BSA/PBS) was added to each well and reacted at room temperature for 2 hours. 300 μl of the washing buffer solution was added to the plate, then washing was repeatedly performed three times, an anti-C1q antibody was diluted with an assay buffer solution to 10, 3, 1, 0.3, and 0.1 μg/ml by ⅓, and mixed (duplication) in an amount of 50 μl in each well, and then the resultant was reacted at room temperature for 2 hours. Then, the washing buffer solution was mixed in the plate by 300 μl each time and washing was repeatedly performed eight times. A C1q-HRP conjugate was diluted 400-fold, and 50 μl of the resultant was added to each well and reacted at room temperature for 1 hour. The washing buffer solution was added to the plate by 300 μl each time, washing was repeatedly performed eight times, 50 μl of TMB as a substrate was mixed, and the resultant was reacted at room temperature. When the color development reaction appeared in blue, 50 μl of a stop solution was added to each well to stop the reaction, and then optical density was measured using a microplate reader set at 450 nm.

[13] = molecular target: T1, recombinant human neonatal Fc receptor …; experiment: SPR (Biacore 8K), rhFcRn amine-coupled on CM5, analyte in PBST pH 6.0, steady state affinity
Method: as §2

[14] = molecular target: T7, IL-10 receptor 1 (IL-10R1), IL-10R His-tag protein (UniProt Q13651 22-235, limits assumed); experiment: BLI (Octet K2), IL-10R His-tag protein on AR2G sensor
T7 construct: not shown: His tag
T7 sequence (looked up): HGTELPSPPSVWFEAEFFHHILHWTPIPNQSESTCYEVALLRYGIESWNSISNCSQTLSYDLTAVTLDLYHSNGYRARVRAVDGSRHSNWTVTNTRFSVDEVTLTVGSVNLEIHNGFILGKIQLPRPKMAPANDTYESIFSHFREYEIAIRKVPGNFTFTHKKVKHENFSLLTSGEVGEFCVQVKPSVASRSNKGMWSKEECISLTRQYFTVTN
Method: (§4) For the analysis, the present inventors attached an IL-10R His-tag protein to a 96-well plate using a Dip and Read™ Amine Reactive 2nd Generation (AR2G) Reagent Kit (forteBio, Cat No. 18-5092). Specifically, 200 μl of D. W. was dispensed into a 96-well plate, and an amine biosensor included in the kit was inserted to perform hydration for 10 minutes. Subsequently, after 200 μl of D. W. was additionally dispensed into a new 96-well plate, EDC and NHS were mixed at 1:1 in an amount of 1/20 of the required sample amount and then diluted with D. W., and 200 μl of the resultant was dispensed into the 96-well plates. Next, the IL-10R His-tag protein was diluted to 10 μg/ml in a 10 mM acetate solution having a pH of 5.0, and then 200 μl of the resultant was added to the 96-well plates. After 200 μl of 1 M ethanolamine was added to the 96-well plates, the biosensor plate and the sample plate were placed in an Octet®-K2 instrument and measured. After the measurement was completed, 200 μl of a 1× kinetics buffer solution was added to the sample plate, and then a baseline was determined.

[15] = molecular target: T7, IL-10 receptor 1 (IL-10R1), IL-10R …; experiment: BLI (Octet K2), IL-10R His-tag protein on AR2G sensor, fusion protein 62.5 to 1,000 nM
Method: as §4

B1: PG-110 (FcεRIα-NTIG-IL-10Vm) (Fc fusion)
chain: VPQKPKVSLNPPWNRIFKGENVTLTCNGNNFFEVSSTKWFHNGSLSEETNSSLNIVNAKFEDSGEYKCQHQQVNESEPVYLEVFSDWLLLQASAEVVMEGQPLFLRCHGWRNWDVYKVIYYKDGEALKYWYENHNISITNATVEDSGTYYCTGKVWQLDYESEPLNITVIKAPREKYWLQGGGGSGGGGSGGGGSEPKSSDKTHTCPPCPSHTQPLGVFLFPPKPKDQLMISRTPEVTCVVVDVSQEDPEVQFNWYVDGVEVHNAKTKPREEQFNSTYRVVSVLTVLHQDWLNGKEYKCKVSNKGLPSSIEKTISKAKGQPREPQVYTLPPSQEEMTKNQVSLTCLVKGFYPSDIAVEWESNGQPENNYKTTPPVLDSDGSFFLYSRLTVDKSRWQEGNVFSCSVLHEALHNHYTQKSLSLSLGAAGSGGGGGSGGGGSGGGGSSPGQGTQSENSCTHFPGNLPNMLRDLRDAFSRVKTFFQMKDQLDNLLLKESLLEDFKGYLGCQALSEMIQFYLEEVMPQAENQDPDAKAHVNSLGENLKTLRLRLRRCHRFLPCENGGSGGSGGSKSKAVEQVKNAFNKLQEKGIYKAMSEFDIFINYIEAYMTMKIRN
notes: Produced in a CHO DG44 cell line
[1]
  IC50 (nM), β-hexosaminidase release from mouse marrow-derived mast cells, column headed 'Fourth test' (equals the mean of the three tests): 16.9 nM
  IC50 (nM), β-hexosaminidase release from mouse marrow-derived mast cells, first test: 21.6 nM
  IC50 (nM), β-hexosaminidase release from mouse marrow-derived mast cells, second test: 14.8 nM
  IC50 (nM), β-hexosaminidase release from mouse marrow-derived mast cells, third test: 14.4 nM
Human IgE
  Kd: 0.346 nM
  koff: 7.59e-05 s⁻¹
  kon: 219000 M⁻¹ s⁻¹
[2]
  koff: 3.4e-05 s⁻¹
  kon: 152000 M⁻¹ s⁻¹
[3]
  koff: 4.82e-05 s⁻¹
  kon: 139000 M⁻¹ s⁻¹
[4]
  koff: 4.06e-05 s⁻¹
  kon: 144000 M⁻¹ s⁻¹
[5]
  Kd: 0.224 nM
[6]
  Kd: 0.346 nM
[7]
  Kd: 0.282 nM
[8]
  Kd: 0.284 nM

B2: PG-11 (GLP-1E-NTIG) (Fc fusion)
chain: HGEGTFTSDVSSYLEGQAAKEFIAWLVKGGPSSGAPPPSGGGGSGGGGSGGGGSEKEKEEQEERTHTCPPCPSHTQPLGVFLFPPKPKDQLMISRTPEVTCVVVDVSQEDPEVQFNWYVDGVEVHNAKTKPREEQFNSTYRVVSVLTVLHQDWLNGKEYKCKVSNKGLPSSIEKTISKAKGQPREPQVYTLPPSQEEMTKNQVSLTCLVKGFYPSDIAVEWESNGQPENNYKTTPPVLDSDGSFFLYSRLTVDKSRWQEGNVFSCSVLHEALHNHYTQKSLSLSLGK
notes: Produced in ExpiCHO and purified on protein A. The hinge is said in general to dimerise the fusion, but no copy number is stated for PG-11; also called PG-II
[9]
  fold affinity against Rituximab: ~9.3 fold
  fold affinity against Trulicity: ~5.3 fold
FcγRIIb
  binding result: no binding
FcγRIIIb
  binding result: no binding
FcγRIIa
  binding result: no binding
[10]
  Kd: 256 nM
[11]
  binding result: no binding
[12]
  binding result: no binding
Complement C1q
  binding result: no binding (tested: 10.0 µg/mL)
[13]
  Kd: 397 nM

B3: PG-088 (NTIG-IL-10V) (Fc fusion)
chain: GGGGSGGGGSGGGGSEPKSSDKTHTCPPCPSHTQPLGVFLFPPKPKDQLMISRTPEVTCVVVDVSQEDPEVQFNWYVDGVEVHNAKTKPREEQFNSTYRVVSVLTVLHQDWLNGKEYKCKVSNKGLPSSIEKTISKAKGQPREPQVYTLPPSQEEMTKNQVSLTCLVKGFYPSDIAVEWESNGQPENNYKTTPPVLDSDGSFFLYSRLTVDKSRWQEGNVFSCSVLHEALHNHYTQKSLSLSLGKAAGSGGGGGSGGGGSGGGGSSPGQGTQSENSCTHFPGNLPNMLRDLRDAFSRVKTFFQMKDQLDNLLLKESLLEDFKGYLGCQALSEMIQFYLEEVMPQAENQDPDAKAHVNSLGENLKTLRLRLRRCHRFLPCENKSKAVEQVKNAFNKLQEKGIYKAMSEFDIFINYIEAYMTMKIRN
notes: also called dimeric IL-10 variant fusion protein
[14]
  koff: 0.0008 s⁻¹
  kon: 71100 M⁻¹ s⁻¹
[15]
  Kd: 11.1 nM

B4: PG-088m (NTIG-IL-10Vm) (Fc fusion)
chain: SHTQPLGVFLFPPKPKDQLMISRTPEVTCVVVDVSQEDPEVQFNWYVDGVEVHNAKTKPREEQFNSTYRVVSVLTVLHQDWLNGKEYKCKVSNKGLPSSIEKTISKAKGQPREPQVYTLPPSQEEMTKNQVSLTCLVKGFYPSDIAVEWESNGQPENNYKTTPPVLDSDGSFFLYSRLTVDKSRWQEGNVFSCSVLHEALHNHYTQKSLSLSLGAAGSGGGGGSGGGGSGGGGSSPGQGTQSENSCTHFPGNLPNMLRDLRDAFSRVKTFFQMKDQLDNLLLKESLLEDFKGYLGCQALSEMIQFYLEEVMPQAENQDPDAKAHVNSLGENLKTLRLRLRRCHRFLPCENGGSGGSGGSKSKAVEQVKNAFNKLQEKGIYKAMSEFDIFINYIEAYMTMKIRN
notes: also called monomeric IL-10 variant fusion protein
[14]
  fold KD against the dimeric IL-10 fusion protein of Example 2-3: ~3 fold
  koff: 0.0006 s⁻¹
  kon: 20600 M⁻¹ s⁻¹
[15]
  Kd: 29.2 nM
